According to the DeepSol protein solubility set:

Assay: soluble on expression in E. coli; label from the status in PepcDB or PDB records

Sequence | soluble on expression in E. coli
MSLDSLDKSKLERMLDIKEAHREGHLTLEEAKERMKKEVGSISPEEFAAAEQLFKERDQDECQNEDVRTMLQLFEGLINPIRPDLPFGHPIDAYLRENDKAKELLDQADALLERTFIPNPWIELMETLMGYKLHFARKQNQLYSTLEQKGFDRPSTTMWTYDDHIRDEMNKAMSLLREKDYDSFPAAYKEMAIVLRDLMEKEELILYPTSLKLISDKEFEEMKHGDREIGFFLIDMPELDAPAKQSKEAHGQSFMAELGALLAKHGMGTGGQDDKAILDVAEGKLTLEQINLLFRHLPVDISFVDENELVCFYTDTKHRVFPRSKGVIGREVRNCHPPKSVHIVEEIIDKFRRGEQDRAEFWINKPGVFIYIVYVAIRDADGRFRGVMEMMQDCTRIRSLEGSRTLLTEGHHHHHH | soluble
MGQGQTKSEQKLSEQTLRKFYDAQLENQLIAENLKWAQQRAVDLLKVRDQLQWEVLAAATTTVVLLAAGSIYKRKDVIIPIVPLIMGCGYQYDVAHGDNRQLVRETAVELLKTPEELHMLPAITLRDIDEFRDSHKL | not soluble
MVNPEEQPISILFLGIDDNDGRRKKGQDAEHSRSDAMILTTFNQSKHQIRMLSIPRDTISYIPKVGYYDKITHAHAYGGPIAAMDSVEATMNVPVDYYVRVNMKAFVEAVNELGGIYYDVPYDLNEPNTDDTGKIKIKKGYQKLNGDEALAVARTRHHDSDLKRGQRQMELIKILFQKAQEVDSIDKLDNVIQIVGKNAKHNLTNSEIKALAKMYLTNDVEIKTAQLKGKDDMLNGIYYYHPSVESIQKYANLLRKDLELSPINDKNDFLDQRVINHYGSLIPLTPLDSSLLRKEQNDTTDKDKTSNENNDSTNNSDSSNQQQPATDQNLNQNQGGTQQAPQASNNQNGVVNLEHHHHHH | soluble
MGHHHHHHSHMLFIDNQNINDPRINLAIEEYCVKHLDPEQQYLLFYVNQPSIIIGKNQNTIEEINTKYVEENGIIVVRRLSGGGAVYHDLGNLNFSFITKDDGDSFHNFKKFTEPVIQALHQLGVEAELSGRNDIVVDGRKISGNAQFATKGRIFSHGTLMFDSAIDHVVSALKVKKDKIESKGIKSIRSRVANISEFLDDKMTTEEFRSHLLRHIFNTNDVGNVPEYKLTEKDWETIHQISKERYQNWDWNYGRSPKFNLNHSKRYPVGSIDLHLEVKKGKIEDCKIFGDFFGVGDVSEIENLLVGKQYERSVIADVLEGVNLKHYFGNITKEDFLDLIY | not soluble
GPGSMPAIVKQLPSSDDDNDQASLSPAKQYAQLGEESSPAGASRAELSNAEAGAEAEGLAQPQKTDASGAERVVDVEECSRLKAAGNELFKDGNISEALTLYRKALWCAPLKPVRPHHPATGESSGLPTPPNGSAPAASSHTATQRDETEVEQQPEDKTDYTLTAQVYCNAGFCLMKLDVKEEAAHMLSEAIRHDDSYLKAYIRRADCYYMMQKWSSAYGDYESYEKLGGVLDAQGCTRKAASKAKVDEEMQKMLGELKSLGNKILGNFGLSTDNFKFDKDPNTGGYSMRFER | soluble
MGVKRKKMGKVAGFTEWTAEDLEAFRARWPIGTAQRLALELYQWTGARCVDVIRLGPQMVGRDGVLTYVQQKTGNPAHVPWTCPAFGLEEQRADLMRCLPVGSPVYMLTEYGKPRTQKGVSQWFSAAAREAGLESRTAHGLRKYRMNALAEHGASVLVMQSWVGHTTLLEVQEYTRRADRRRVISGGHAAALEHHHHHH | not soluble
SLFLLDPFSGISGDMFLSAMIDFVDKEDFINTIKKVIDVEIEIKKVKKCHILANKVNIIPKCINCNANTYKDIKNVIKSSDIQEDIKITALEILKILAEAESKVHNVDVENVHFHEVGNYDTIADIVGAAYIINKLNLKNNCLYKPINVGNGFVRTEHGLLPVPAPATAEILKGLKIFFSDINEELTTPTGSAIIKYINPKLAKGAFIIKEVSYGAGDKDLNLLNALRVFRVEDIKREDIVLLETNVDDISAEILGYLYEVLDGKVRDLHFIPTYMKKNRPAYTIRAIVDRDIAEEVAKIIMRETGSLGVRIFDIERITADREFKTIKLFDESVRLKVGRVNDEIISQKPEFEDLKNIAKKYGIPLKDLYKLINISQIKN | soluble
MKEVKKEYLTLDEVKILAQTPCEHDVLKRASLFSCLTGLRISDILNLRWEDFTLAPDQGYCIRIRTQKTSTEATLPISYEAYELCGEPSSGKVFKGLQRSMINYPLKKWIKQAGIMKHITFHCFRHSYAVIQISLGTDIYTVSKMLTHKNVSTTQIYADLEHHHHHH | not soluble
MLLELIPLLGIHFVLRTARAQSVTQPDIHITVSEGASLELRCNYSYGATPYLFWMERTVEEAFILLVCLKPWRVASSLEKKEKEDESFQLLLGSRYNVLEAHCLLPLIRWLTSGDSLLSAQPHCPQEL | not soluble
GMAKIEKNAPTMEKKPELFNIMEVDGVPTLILSKEWWEKVANFQAKPDDLILATYPKSGTTWMHEILDMILNDGDVEKCKRAQTLDRHAFLELKFPHKEKPDLEFVLEMSSPQLIKTHLPSHLIPPSIWKENCKIVYVARNPKDCLVSYYHFHRMASFMPDPQNLEEFYEKFMSGKVVGGSWFDHVKGWWAAKDMHRILYLFYEDIKKDPKREIEKILKFLEKDISEEILNKIIYHTSFDVMKQNPMTNYTTLPTSIMDHSISPFMRKGMPGDWKNYFTVAQNEEFDKDYQKKMAGSTLTFRTEI | soluble
MPHQSQPGFLLPAIQHHSMQGSLPGERDVTVVGGGFGGLAAAAYLARAGASVTLLEQHDTVGGRAGVLERDGFRFDTGPSWYLMPDVFERFFDHFDHDPHDFYELTRLDPQYRVFWTDGDSATIEPNRRNAHELFESYEEGAGDALATYLDRAATNYDLAMNRVVYPDRTAFRDYASTDMLPLASRLRLFGNMDDYVSRFFDHPKLRQLLEYTLVFLGGAPHNTPALYSIMSHVDLNGNVFYPEGGIAGVVDALAELAVEQGATIETGVGVNAISGRRGEFTLATDDGTRTTDLVVNNANPAYAERELLDTGGRDHAPDYWDDQTYAPSALMFYLGVEGDVEPLAHHSLVLPPDWDGHFAQLFDDPGWPDDPAFYLSVASKTDDTVAPDGHEAVVILLPIAPGLDDTPEIRAQYRDRLLGTLAAQTGVDLRDRIVVEESACVSEFSEQFGDPGGTALGLAHTLFQTGPLRPGKRDGPDGHYYVGAYTNPGIGMPMCLISGEHVTKAVIDDDPAASGSTDPLAVPGEFNFDTPTTAD | not soluble
MIILIRYGPIDVTYCRMKRGFMYMVAIIDWYSRYIVGFELSNTLDKTFVIEAIQKAIKRYGKPEIMNSDQGSQFTSDDYINLLKNNGIKISMDGKGRALDNQRIERFFRSYKWEKLYLEECETVQQLRQITKEYVEHYNHRRPHQSLDYKTPAEYYFGGYDQLLAVV | not soluble
GPGSMTHDSRTPQGKSRVSGGSSCFPSGYLNNESFDLNSETDHVSANSSTCHPAESYHLLLPRELQTPAQHFTTPEIPEISSHSPLCSALFSSVTEMQHQSVLEVGVASDQGIRSSMEDEHVTVVEPEVCFFGIYDGHGGRQCAEYVRARLHEITLAHECLKTDPRKAISDAFAQVEREFLGQNTNDMSSAGCVCAAAVVQGSVLTVGNVGDCEVVLARAGQPVLLTVKHNPSCNDAEATRVKKAGGCIFNCRVGHPRFNPRMCSLAVSRAVGDAGFKLEEYTNGKPSGIIAVADTSEVLLAKDDEFLILACDGLWDTMSYAEAVELATAYMASGADANSVADQLVGEALRRGTRDNVTAIFVRLGGSAQAGLGDANK | not soluble
MGSDKIHHHHHHMRTKIGIYLSSEPESGGMFQYGLSILDAAASLPRDRYQTTVAFISERWNEHLKFRNLEHFQISPNFLWRIFKGKGWLLLNLPISFWRWILINLNPFFYKRLIQEGCDLWLFPSQDTWTYLLRLNSLGVVHDLMHRYEKKFSEVAAPFEYRRRERHYRAMCEYSKGILVDSNYGKRQVLESYDAKPDFIHVLPYVPPEYINIKNAPIDFDSRYNLPRKFLFYPAQFWEHKNHHNLLAALAHLKRELRDIHVVLVGSKKNAYKKTLGYINSMNLSDHVIILGYVPNEDMAEFYRRARALVFPSFFGPTNIPPLEACAAGCPLAVSNIYGMPEQLGDAALFFNPHSVEEIHLAMKRLWIDDALCRQLSMNGKKWAKAWNQNSFNRQFQVIIEEVLKNPNT | not soluble
MGSDKIHHHHHHMKMNWTGAAHQLNKQGKAYVIATIVGVTGSTPRNSGTKMVITHDDIFDTIGGGHLEHKVIKHAHQLLMAGDDCQQLEHFQLGAQLGQCCGGNASVLFESFSASGVNIMLFGAGHVGKALMPILAGLPCSITWVDSRADQFPDDAGNYHNVTTLVSENPAEEVALMPTNSYYIVMTHNHQLDFEISHNTLKRADFAYLGLIASDTKWRRFQQRFQHRDIAKSLVEKMNCPIGLPQVQGKLPMEVAVSVAGEIIQLYQAELASQALANPSANKQKDAKPQSTKQGIAWQELKSLMTEEVS | not soluble
MKKTLILGATPETNRYAYLAAERLKSHGHEFIPVGRKKGEVLGKTIINERPVIEGVDTVTLYINPQNQLSEYNYILSLKPKRVIFNPGTENEELEEILSENGIEPVIGCTLVMLSAGT | not soluble
MRAVFRTDIGQIREHNEDSGGVFVNQSGQYLAVVADGMGGHRAGDVASSMAVAYLQERWEKESGLASPAEAEQWLKTQIASANEQLFRHALSHPECQGMGTTVVAAVCANSFATVAHIGDSRCYVLNKSGIQQLTDDHSLVNELVKSGQLSKEAAEHHPRKNVLLRALGTEPAVKIDVKTVALDEGDMLLLCSDGLSNKVPEADMIHILTGAGTLEEKAEALIQLANGRGGEDNISLAVIDVSAEREGG | not soluble
DLVASGATLPEIQKRGYLTVAVKDNLRPLGFRDDKGNLQGLEIDLAKRLANDLLGKPDAVKFQPVANSDRLPVIVENKIDLAIANVTATESRSRIVSFSVPYYYDGAAIVTKDTSINQLEDLYRRKIAVLNNSSTIFYVKYFIPKSELIGVSSYAQAQEKIESNAVDAFAADNSLLSGWVQEYPKYHILPSQLSTEPLSVVMAKGLQYDEFRRSVNEAIARYIATGWLKESTQHWGLGNSQEKTLTTDR | not soluble
SQPDHGRLSPPEAPDRPTISTASETSVYVTWIPRGNGGFPIQSFRVEYKKLKKVGDWILATSAIPPSRLSVEITGLEKGISYKFRVRALNMLGESEPSAPSRPYVVSG | soluble
MILMESLSVSGTETVSVPQDWNVMDVIGAKSWYVVSEKEPSWEEIIKGKTVEAVDEPPSRFEVISTSPLVLKKDTKYYIYNSTLKKWLVLEYEEPQSSRKLVMNGQGKVTLLLRSSGSWNVRYYLFEDTLTGNAFLSVSGVESADVFLISRPAGEASIWKGMYLSASPSREMPEEHESEEVKVYHLGKVKDLDKSPVVNLIETNLFNVNEYYSYSFAVNDSIFDYQKTTFTRSFMTPVDLPGGTVSIFSNISGVDIMIGETSIPDTPKNSLLELPVTDSWDVRVKGEILDERNYKDTYEYERTWRVTVQNLNETESKVRINIYGNMMRLLRSSIKPLKETSDQIVFELIVPPNSEKEFEFKVRSGWLEHHHHHH | not soluble
MVVPGKNSTISPDYFTASQTSPLDMMKFPSPGSSKRYDNGGGIGLGIVAALEKSSIGINPVCHTGAGSKGFDLARYSKRFQFAAGIDLSDSEEYTCVTTRDGLTKVYYKEEEFEFGHNLLNGDQRWRKPIEIAEESPAKERRVLRDCPDFLTSCCLCKKKLQGKDIYMYKGDEGFCSKECRSLKIMEDSLKEQHKLTSVEVLTGEEIASPGIFLI | soluble
MAHHHHHHMWDPFRDIDRIFNRVLPLTGAGSFSSFSRGSWSPAMDLVEKPEGYKLLVDLPGMNREDIQVGIEDNRLCISGNRKSLLKDDEQHLAVFLERGYGRFERCMNLPSPIVEESVKARLRDSVLVVELKKNNSPASSAATSVTIQ | soluble
